# Measured values as given in US20240294608A1, “ELP FUSION PROTEINS FOR CONTROLLED AND SUSTAINED RELEASE” (ImmunoForge Co., LTD., priority 2016, published 2024).
# T1: GLP-2 receptor (Homo sapiens, UniProt O95838)
# T1 sequence (O95838 1-553): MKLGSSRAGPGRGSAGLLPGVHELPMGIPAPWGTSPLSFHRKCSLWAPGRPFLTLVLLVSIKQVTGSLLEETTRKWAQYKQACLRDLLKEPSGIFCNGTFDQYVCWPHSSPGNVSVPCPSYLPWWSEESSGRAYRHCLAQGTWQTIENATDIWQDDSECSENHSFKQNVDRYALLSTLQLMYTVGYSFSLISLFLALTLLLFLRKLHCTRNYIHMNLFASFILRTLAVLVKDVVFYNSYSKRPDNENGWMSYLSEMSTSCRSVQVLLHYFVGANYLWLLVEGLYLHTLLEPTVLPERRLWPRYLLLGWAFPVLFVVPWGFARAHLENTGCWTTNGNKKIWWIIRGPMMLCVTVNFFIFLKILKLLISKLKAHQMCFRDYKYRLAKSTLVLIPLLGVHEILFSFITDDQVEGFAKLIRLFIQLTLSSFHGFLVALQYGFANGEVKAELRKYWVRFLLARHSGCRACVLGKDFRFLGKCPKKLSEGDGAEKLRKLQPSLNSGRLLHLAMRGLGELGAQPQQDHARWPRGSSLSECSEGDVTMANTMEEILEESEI
# B1: PE9306: CNP37 on N-terminus of ELP1-120 with Cathepsin K site 1 (Arg-Lys-Pro-Arg/Gly); SEQ ID NOs: 125 & 126 (protein)
# chain: QEHPNARKYKGANKKGLSKGCFGLKLDRIGSMSGLGCRKPRGVPGVGVPGVGVPGGGVPGAGVPGVGVPGVGVPGVGVPGGGVPGAGVPGGGVPGVGVPGVGVPGGGVPGAGVPGVGVPGVGVPGVGVPGGGVPGAGVPGGGVPGVGVPGVGVPGGGVPGAGVPGVGVPGVGVPGVGVPGGGVPGAGVPGGGVPGVGVPGVGVPGGGVPGAGVPGVGVPGVGVPGVGVPGGGVPGAGVPGGGVPGVGVPGVGVPGGGVPGAGVPGVGVPGVGVPGVGVPGGGVPGAGVPGGGVPGVGVPGVGVPGGGVPGAGVPGVGVPGVGVPGVGVPGGGVPGAGVPGGGVPGVGVPGVGVPGGGVPGAGVPGVGVPGVGVPGVGVPGGGVPGAGVPGGGVPGVGVPGVGVPGGGVPGAGVPGVGVPGVGVPGVGVPGGGVPGAGVPGGGVPGVGVPGVGVPGGGVPGAGVPGVGVPGVGVPGVGVPGGGVPGAGVPGGGVPGVGVPGVGVPGGGVPGAGVPGVGVPGVGVPGVGVPGGGVPGAGVPGGGVPGVGVPGVGVPGGGVPGAGVPGVGVPGVGVPGVGVPGGGVPGAGVPGGGVPGVGVPGVGVPGGGVPGAGVPGVGVPGVGVPGVGVPGGGVPGAGVPGGGVPGWP
# modifications: CNP37 CatK ELP1-120 fusion PE9306
# B2: PE0503: GLP-2 sequence with A2G mutation on the N-terminus of the ELP1-120 sequence (protein)
# chain: HGDGSFSDEMNTILDNLAARDFINWLIQTKITDVPGVGVPGVGVPGGGVPGAGVPGVGVPGVGVPGVGVPGGGVPGAGVPGGGVPGVGVPGVGVPGGGVPGAGVPGVGVPGVGVPGVGVPGGGVPGAGVPGGGVPGVGVPGVGVPGGGVPGAGVPGVGVPGVGVPGVGVPGGGVPGAGVPGGGVPGVGVPGVGVPGGGVPGAGVPGVGVPGVGVPGVGVPGGGVPGAGVPGGGVPGVGVPGVGVPGGGVPGAGVPGVGVPGVGVPGVGVPGGGVPGAGVPGGGVPGVGVPGVGVPGGGVPGAGVPGVGVPGVGVPGVGVPGGGVPGAGVPGGGVPGVGVPGVGVPGGGVPGAGVPGVGVPGVGVPGVGVPGGGVPGAGVPGGGVPGVGVPGVGVPGGGVPGAGVPGVGVPGVGVPGVGVPGGGVPGAGVPGGGVPGVGVPGVGVPGGGVPGAGVPGVGVPGVGVPGVGVPGGGVPGAGVPGGGVPGVGVPGVGVPGGGVPGAGVPGVGVPGVGVPGVGVPGGGVPGAGVPGGGVPGVGVPGVGVPGGGVPGAGVPGVGVPGVGVPGVGVPGGGVPGAGVPGGGVPGVGVPGVGVPGGGVPGAGVPGVGVPGVGVPGVGVPGGGVPGAGVPGGGVPGWP
# modifications: pPE0503-GLP-2(A2G)-ELP1-120
# Assays:
# [1] = tested on: normal mice (strain FVB/nj); test: Linear growth of normal mice, daily injection for three weeks; format: in vivo; conditions: injected daily for three weeks, mice 3 weeks of age, vs saline; FIG. 3A-C
# Description: Effect on growth was determined by measuring nose to tail length (A), nose to anus length (B), and tail length (C). The graphs show the mean change in growth versus baseline over the 3 week period.
# The above constructs were injected daily in normal mice (strain FVB/nj) for three weeks. The mice were 3 weeks of age at the start of the experiment. The effect on linear growth of the mice was determined by measuring tail length, nose to anal length and nose to tail length after each week of dosing in comparison to a control group injected with normal saline. […] There was no significant effect on body weight.
# [2] = biological target: T1, GLP-2 receptor; test: Cell-based cAMP potency assay; conditions: read-out: ECso
# [3] = tested on: Male Sprague Dawley rats; test: Small intestine weight and histology after eleven-day subcutaneous dosing in rats; format: in vivo
# Description: Dosing was as follows: Vehicle group dosed with saline daily; PE0503 Q1D dosed with PE0503 at 1.3 mg/kg once per day; PE0503 Q2D dosed with PE0503 at 5.1 mg/kg every other day; PE0503 Q4D dosed with PE0503 at 20.5 mg/kg once every four days; GLP-2(A2G) TID dosed […] with 0.1 mg/kg GLP2(A2G).
# Male Sprague Dawley rats (200-220 g, n=12/group) were injected subcutaneously with PE0503 or GLP-2 (A2G) peptide over an eleven-day dosing period as shown in Table 5.
# The animals were sacrificed on day 12 and a mid-line incision was made, the small intestines were removed, stretched to their maximum length and measured. The fecal material was then flushed from the lumen and the small intestine weight was recorded.
# [4] = biological target: GLP-2 receptor; test: cell-based or functional assay
molecule,measurement,setting,value
B1,"rate of linear growth (tail length, nose to anal length, nose to tail length)",[1],faster rate of linear growth
B2,EC50,[2],1.75 nM
same,small intestine weight,"[3]; compared to placebo, day 12, even when dosed every fourth day (Q4D), FIG. 4",highly significant increase
same,villus height (histological analysis of sections of the small intestine),[3]; compared to vehicle (saline),clear increase
"HGDGSFSDEMNTILDNLAARDFINWLIQTKITD (ligand, part only; not given: ELP carrier, part only) [PE0503]","EC50, cell-based cAMP potency assay",[4],1.75 nM
